{"source": "patent US20060105378", "target": "Tenascin-C (Homo sapiens) (UniProt P24821)", "sequence (P24821 23-2201)": "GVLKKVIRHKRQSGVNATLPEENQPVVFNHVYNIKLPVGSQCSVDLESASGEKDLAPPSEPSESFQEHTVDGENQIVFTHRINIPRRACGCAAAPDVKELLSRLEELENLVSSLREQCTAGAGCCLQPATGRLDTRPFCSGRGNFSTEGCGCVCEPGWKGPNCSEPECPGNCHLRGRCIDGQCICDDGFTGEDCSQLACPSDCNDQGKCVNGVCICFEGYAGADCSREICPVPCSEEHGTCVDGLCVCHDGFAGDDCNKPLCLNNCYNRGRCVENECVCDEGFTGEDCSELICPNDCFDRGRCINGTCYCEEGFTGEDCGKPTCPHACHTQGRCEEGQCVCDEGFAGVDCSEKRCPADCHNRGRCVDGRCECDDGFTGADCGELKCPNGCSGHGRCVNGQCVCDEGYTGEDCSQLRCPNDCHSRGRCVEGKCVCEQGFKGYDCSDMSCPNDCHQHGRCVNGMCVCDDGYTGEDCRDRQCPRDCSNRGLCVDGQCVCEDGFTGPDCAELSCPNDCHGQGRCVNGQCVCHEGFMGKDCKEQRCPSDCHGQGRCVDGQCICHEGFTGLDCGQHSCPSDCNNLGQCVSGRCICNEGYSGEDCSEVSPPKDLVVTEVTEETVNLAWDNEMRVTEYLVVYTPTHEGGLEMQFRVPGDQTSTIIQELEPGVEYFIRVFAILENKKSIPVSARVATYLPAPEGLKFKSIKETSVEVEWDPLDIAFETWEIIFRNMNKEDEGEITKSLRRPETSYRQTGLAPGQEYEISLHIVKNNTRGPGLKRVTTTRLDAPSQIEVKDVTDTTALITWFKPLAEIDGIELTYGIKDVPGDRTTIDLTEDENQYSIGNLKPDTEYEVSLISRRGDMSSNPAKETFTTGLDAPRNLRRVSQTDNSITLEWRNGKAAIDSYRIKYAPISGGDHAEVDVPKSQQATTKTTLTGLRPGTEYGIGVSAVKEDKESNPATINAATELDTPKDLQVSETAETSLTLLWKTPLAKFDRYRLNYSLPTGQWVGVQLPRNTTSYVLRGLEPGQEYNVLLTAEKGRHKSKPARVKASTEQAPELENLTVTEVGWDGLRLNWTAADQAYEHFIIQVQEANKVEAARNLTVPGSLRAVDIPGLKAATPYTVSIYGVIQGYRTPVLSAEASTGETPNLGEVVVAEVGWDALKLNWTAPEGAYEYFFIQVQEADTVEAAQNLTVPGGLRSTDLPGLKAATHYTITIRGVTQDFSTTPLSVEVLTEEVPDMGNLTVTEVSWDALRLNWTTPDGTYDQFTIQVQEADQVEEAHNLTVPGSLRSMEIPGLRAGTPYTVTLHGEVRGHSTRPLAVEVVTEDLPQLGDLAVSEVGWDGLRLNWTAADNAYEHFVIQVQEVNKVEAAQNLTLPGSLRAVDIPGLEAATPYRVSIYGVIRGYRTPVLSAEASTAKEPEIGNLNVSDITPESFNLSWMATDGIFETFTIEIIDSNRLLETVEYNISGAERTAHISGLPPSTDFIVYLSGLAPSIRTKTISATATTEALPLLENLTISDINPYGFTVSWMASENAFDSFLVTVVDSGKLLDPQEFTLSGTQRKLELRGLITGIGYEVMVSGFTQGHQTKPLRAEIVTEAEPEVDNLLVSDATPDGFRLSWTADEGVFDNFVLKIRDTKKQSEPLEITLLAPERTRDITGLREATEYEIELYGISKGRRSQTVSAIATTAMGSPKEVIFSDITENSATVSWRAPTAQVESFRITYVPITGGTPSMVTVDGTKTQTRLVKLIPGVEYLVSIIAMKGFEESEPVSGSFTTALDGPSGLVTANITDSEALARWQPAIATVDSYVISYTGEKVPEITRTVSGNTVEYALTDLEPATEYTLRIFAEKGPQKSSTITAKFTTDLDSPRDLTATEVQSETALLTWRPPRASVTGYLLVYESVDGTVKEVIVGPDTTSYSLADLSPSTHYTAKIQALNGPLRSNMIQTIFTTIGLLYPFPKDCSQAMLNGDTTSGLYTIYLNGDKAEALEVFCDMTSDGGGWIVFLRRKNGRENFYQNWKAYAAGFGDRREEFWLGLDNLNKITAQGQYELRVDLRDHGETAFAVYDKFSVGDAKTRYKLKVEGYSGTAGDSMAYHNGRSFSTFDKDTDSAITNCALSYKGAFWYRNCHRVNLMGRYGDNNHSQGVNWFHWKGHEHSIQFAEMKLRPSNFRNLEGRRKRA", "assay": "filter", "conditions": "2'-F all C and U; 2'-OMe all A and G except G1,G9,G28,G31,G34 (TN9 numbering) 2'-OH; (CH2CH2O)6 spacer replaces nt 10-26 (n in SEQ 64); 5' hexylamine; 3'-3' dT cap", "note": "pKd: −log10 of the molar value.", "data": [{"sequence": "GGGAGGACGNCGUCGCCGUAAUGGAUGUUUUGCUCCCUG [TTA1 (GS7641)]", "values": [{"measurement": "pKd", "result": 8.30}]}]}
